Results published in patent US9580733B2, “Methods of producing 6-carbon chemicals via methyl-ester shielded carbon chain elongation” (INVISTA North America S.á r.l., priority 2012, dated 2017).
Blank lines part the entries; values can stand above or below the molecule they belong to.

Columns and labels:
Assay type in all cases: biochemical
[1] = ω-transaminase activity assay, reverse direction, 6-aminohexanoate to adipate semialdehyde; conditions: cell free extract, 10 mM 6-aminohexanoate, 10 mM pyruvate, 25° C., 24 h, vs empty vector control, FIG. 15
Description: (§1) A nucleotide sequence encoding a His-tag was added to the genes from Chromobacterium violaceum, Pseudomonas aeruginosa, Pseudomonas syringae, Rhodobacter sphaeroides, and Vibrio fluvialis encoding the ω-transaminases of SEQ ID NOs: 7, 8, 9, 10 and 12, respectively (see FIGS. 7E and 7F) such that N-terminal HIS tagged ω-transaminases could be produced. Each of the resulting modified genes was cloned into a pET21a expression vector under control of the T7 promoter and each expression vector was transformed into a BL21[DE3] E. coli host. The resulting recombinant E. coli strains were cultivated at 37° C. in a 250 mL shake flask culture containing 50 mL LB media and antibiotic selection pressure, with shaking at 230 rpm. Each culture was induced overnight at 16° C. using 1 mM IPTG.
(§2) The pellet from each induced shake flask culture was harvested via centrifugation. Each pellet was resuspended and lysed via sonication. The cell debris was separated from the supernatant via centrifugation and the cell free extract was used immediately in enzyme activity assays.
Enzyme activity assays in the reverse direction (i.e., 6-aminohexanoate to adipate semialdehyde) were performed in a buffer composed of a final concentration of 50 mM HEPES buffer (pH=7.5), 10 mM 6-aminohexanoate, 10 mM pyruvate and 100 μM pyridoxyl 5′ phosphate. Each enzyme activity assay reaction was initiated by adding cell free extract of the ω-transaminase gene product or the empty vector control to the assay buffer containing the 6-aminohexanoate and incubated at 25° C. for 24 h, with shaking at 250 rpm. The formation of L-alanine from pyruvate was quantified via RP-HPLC.

[2] = ω-transaminase activity assay, forward direction, adipate semialdehyde to 6-aminohexanoate; conditions: cell free extract, 10 mM adipate semialdehyde, 10 mM L-alanine, 25° C., 4 h, vs empty vector control, FIG. 16
Description: as §1, §2
Enzyme activity in the forward direction (i.e., adipate semialdehyde to 6-aminohexanoate) was confirmed for the transaminases of SEQ ID NO 7, SEQ ID NO 8, SEQ ID NO 9, SEQ ID NO 10 and SEQ ID NO 12. Enzyme activity assays were performed in a buffer composed of a final concentration of 50 mM HEPES buffer (pH=7.5), 10 mM adipate semialdehyde, 10 mM L-alanine and 100 μM pyridoxyl 5′ phosphate. Each enzyme activity assay reaction was initiated by adding a cell free extract of the ω-transaminase gene product or the empty vector control to the assay buffer containing the adipate semialdehyde and incubated at 25° C. for 4 h, with shaking at 250 rpm. The formation of pyruvate was quantified via RP-HPLC.

[3] = Thioesterase enzyme activity assay, adipyl-CoA to adipate; conditions: 667 μM adipyl-CoA, pH 7.4, 37° C., 20 min, vs empty vector control, FIG. 8
Description: A sequence encoding an N-terminal His-tag was added to the genes from Escherichia coli encoding the thioesterases of SEQ ID NOs: 1 and 2 respectively (see FIG. 7A), such that an N-terminal HIS tagged thioesterase could be produced. Each of the resulting modified genes was cloned into a pET15b expression vector under control of the T7 promoter. Each expression vector was transformed into a BL21[DE3] E. coli host. The resulting recombinant E. coli strains were cultivated at 37° C. in a 500 mL shake flask culture containing 50 mL Luria Broth (LB) media and antibiotic selection pressure, with shaking at 230 rpm. The culture was induced overnight at 17° C. using 0.5 mM IPTG.
The pellet from the induced shake flask culture was harvested via centrifugation. The pellet was resuspended and lysed in Y-per™ solution (ThermoScientific, Rockford, Ill.). The cell debris was separated from the supernatant via centrifugation. […]
The enzyme activity assay was performed in triplicate in a buffer composed of 50 mM phosphate buffer (pH=7.4), 0.1 mM Ellman's reagent, and 667 μM of adipyl-CoA (as substrate). […] The release of Coenzyme A was monitored by absorbance at 412 nm. The absorbance associated with the substrate only control, which contained boiled enzyme, was subtracted from the active enzyme assay absorbance and compared to the empty vector control.

B2: SEQ ID NO 8: Chromobacterium violaceum ω-transaminase (Genbank Accession No. AAQ59697.1) (protein, listed as Chromobacterium violaceum)
chain: MQKQRTTSQWRELDAAHHLHPFTDTASLNQAGARVMTRGEGVYLWDSEGNKIIDGMAGLWCVNVGYGRKDFAEAARRQMEELPFYNTFFKTTHPAVVELSSLLAEVTPAGFDRVFYTNSGSESVDTMIRMVRRYWDVQGKPEKKTLIGRWNGYHGSTIGGASLGGMKYMHEQGDLPIPGMAHIEQPWWYKHGKDMTPDEFGVVAARWLEEKILEIGADKVAAFVGEPIQGAGGVIVPPATYWPEIERICRKYDVLLVADEVICGFGRTGEWFGHQHFGFQPDLFTAAKGLSSGYLPIGAVFVGKRVAEGLIAGGDFNHGFTYSGHPVCAAVAHANVAALRDEGIVQRVKDDIGPYMQKRWRETFSRFEHVDDVRGVGMVQAFTLVKNKAKRELFPDFGEIGTLCRDIFFRNNLIMRACGDHIVSAPPLVMTRAEVDEMLAVAERCLEEFEQTLKARGLA
ω-transaminase activity for converting adipate semialdehyde to 6-aminohexanoate (formation of pyruvate, RP-HPLC) [2]: accepted adipate semialdehyde as substrate

B5: SEQ ID NO 1: Escherichia coli thioesterase encoded by tesB (GenBank Accession No. AAA24665.1), N-terminal His-tagged (protein, listed as Escherichia coli)
chain: MSQALKNLLTLLNLEKIEEGLFRGQSEDLGLRQVFGGQVVGQALYAAKETVPEERLVHSFHSYFLRPGDSKKPIIYDVETLRDGNSFSARRVAAIQNGKPIFYMTASFQAPEAGFEHQKTMPSAPAPDGLPSETQIAQSLAHLLPPVLKDKFICDRPLEVRPVEFHNPLKGHVAEPHRQVWIRANGSVPDDLRVHQYLLGYASDLNFLPVALQPHGIGFLEPGIQIATIDHSMWFHRPFNLNEWLLYSVESTSASSARGFVRGEFYTQDGVLVASTVQEGVMRNHN
modifications: N-terminal His tag
thioesterase activity for converting adipyl-CoA to adipate (release of Coenzyme A, absorbance at 412 nm) [3]: accepted adipyl-CoA as substrate

B6: SEQ ID NO 2: Escherichia coli thioesterase encoded by YciA (GenBank Accession No. AAB60068.1), N-terminal His-tagged (protein, listed as Escherichia coli)
chain: MSTTHNVPQGDLVLRTLAMPADTNANGDIFGGWLMSQMDIGGAILAKEIAHGRVVTVRVEGMTFLRPVAVGDVVCCYARCVQKGTTSVSINIEVWVKKVASEPIGQRYKATEALFKYVAVDPEGKPRALPVE
modifications: N-terminal His tag
thioesterase activity for converting adipyl-CoA to adipate (release of Coenzyme A, absorbance at 412 nm) [3]: accepted adipyl-CoA as substrate

More lines, main results first:

ω-transaminase activity for converting 6-aminohexanoate to adipate semialdehyde (formation of L-alanine from pyruvate, RP-HPLC) [1]: accepted 6-aminohexanote as substrate
B1: SEQ ID NO 9: Pseudomonas aeruginosa ω-transaminase (Genbank Accession No. AAG08191.1) (protein, listed as Pseudomonas aeruginosa)
chain: MNARLHATSPLGDADLVRADQAHYMHGYHVFDDHRVNGSLNIAAGDGAYIYDTAGNRYLDAVGGMWCTNIGLGREEMARTVAEQTRLLAYSNPFCDMANPRAIELCRKLAELAPGDLDHVFLTTGGSTAVDTAIRLMHYYQNCRGKRAKKHVITRINAYHGSTFLGMSLGGKSADRPAEFDFLDERIHHLACPYYYRAPEGLGEAEFLDGLVDEFERKILELGADRVGAFISEPVFGSGGVIVPPAGYHRRMWELCQRYDVLYISDEVVTSFGRLGHFFASQAVFGVQPDIILTAKGLTSGYQPLGACIFSRRIWEVIAEPDKGRCFSHGFTYSGHPVACAAALKNIEIIEREGLLAHADEVGRYFEERLQSLRDLPIVGDVRGMRFMACVEFVADKASKALFPESLNIGEWVHLRAQKRGLLVRPIVHLNVMSPPLILTREQVDTVVRVLRESIEETVEDLVRAGHR
ω-transaminase activity for converting adipate semialdehyde to 6-aminohexanoate (formation of pyruvate, RP-HPLC) [2]: accepted adipate semialdehyde as substrate

ω-transaminase activity for converting 6-aminohexanoate to adipate semialdehyde (formation of L-alanine from pyruvate, RP-HPLC) [1]: accepted 6-aminohexanote as substrate
B3: SEQ ID NO 10: Pseudomonas syringae ω-transaminase (Genbank Accession No. AAY39893.1) (protein, listed as Pseudomonas syringae)
chain: MSANNPQTLEWQALSSEHHLAPFSDYKQLKEKGPRIITRAEGVYLWDSEGNKILDGMSGLWCVAIGYGREELADAASKQMRELPYYNLFFQTAHPPVLELAKAISDIAPEGMNHVFFTGSGSEGNDTMLRMVRHYWALKGQPNKKTIISRVNGYHGSTVAGASLGGMTYMHEQGDLPIPGVVHIPQPYWFGEGGDMTPDEFGIWAAEQLEKKILELGVENVGAFIAEPIQGAGGVIVPPDSYWPKIKEILSRYDILFAADEVICGFGRTSEWFGSDFYGLRPDMMTIAKGLTSGYVPMGGLIVRDEIVAVLNEGGDFNHGFTYSGHPVAAAVALENIRILREEKIVERVRSETAPYLQKRLRELSDHPLVGEVRGVGLLGAIELVKDKTTRERYTDKGAGMICRTFCFDNGLIMRAVGDTMIIAPPLVISFAQIDELVEKARTCLDLTLAVLQG
ω-transaminase activity for converting adipate semialdehyde to 6-aminohexanoate (formation of pyruvate, RP-HPLC) [2]: accepted adipate semialdehyde as substrate

ω-transaminase activity for converting 6-aminohexanoate to adipate semialdehyde (formation of L-alanine from pyruvate, RP-HPLC) [1]: accepted 6-aminohexanote as substrate
B4: SEQ ID NO 12: Escherichia coli ω-transaminase, gene product of YgjG (Genbank Accession No. AAA57874.1) (protein, listed as Escherichia coli)
chain: MNRLPSSASALACSAHALNLIEKRTLDHEEMKALNREVIEYFKEHVNPGFLEYRKSVTAGGDYGAVEWQAGSLNTLVDTQGQEFIDCLGGFGIFNVGHRNPVVVSAVQNQLAKQPLHSQELLDPLRAMLAKTLAALTPGKLKYSFFCNSGTESVEAALKLAKAYQSPRGKFTFIATSGAFHGKSLGALSATAKSTFRKPFMPLLPGFRHVPFGNIEAMRTALNECKKTGDDVAAVILEPIQGEGGVILPPPGYLTAVRKLCDEFGALMILDEVQTGMGRTGKMFACEHENVQPDILCLAKALGGGVMPIGATIATEEVFSVLFDNPFLHTTTFGGNPLACAAALATINVLLEQNLPAQAEQKGDMLLDGFRQLAREYPDLVQEARGKGMLMAIEFVDNEIGYNFASEMFRQRVLVAGTLNNAKTIRIEPPLTLTIEQCELVIKAARKALAAMRVSVEEA
ω-transaminase activity for converting adipate semialdehyde to 6-aminohexanoate (formation of pyruvate, RP-HPLC) [2]: accepted adipate semialdehyde as substrate
